Assay: soluble on expression in E. coli; label from the status in PepcDB or PDB records

MLEIKGLRARIVGTNTEVIRGLNLTVADGEVAAIMGQNGAGKSTLSYLLAGRDDYEVIDGDILYNGQSLLEMDPAERAAYGVFLAFQYPMEIPGVATMEFLKVAMNSQRKARGDQELKIPEFIKCVKEISSKLEINMDMLKRPLNVGFSGGEKKRAEILQMALLEPKLCILDETDSGLDIDALKIVADGVNKLRDPKRSFLVITHYQRLLNYIIPDTVHVLYKGRIIKSGDKSLALYLEQNGYADLIREAA
soluble on expression in E. coli: not soluble

MKYIVLLGDGMSDEPMQELGGKTPLQAARTPHMDAMARRGRIGLARTVPEGYPPGSDVANLSVFGYDPRACYTGRSPLEAASMGVELGSADVAFRVNLVNLAPTRGTLVMNDYSAGHISTAEGRELIEAIQGVMGTDEFQFYPGVGYRHLMVWRNGKCGMTVVPPHDISGQSILEHLPKGEGAERLIELMNSSQLVLNNHPQYRRRLEEGKVPANSIWLWGHGKAPRMASFHEKFGLTGAVISAVDLVRGIGVCAGLDVIKVEGATGYIDTNYEGKVTAALEALEAHDYVYLHVEAPDEAGHGGNLEHKLKAIEDFDARVVGPIMAGMEKFGSYRILCTPDHPTPLRLKTHTDAPVPFVLFSGETSENAGVAGYDEESARSAGLVVEDGFRLMEMMLDRLEHHHHHH
soluble on expression in E. coli: soluble

ENYLNVKKIENEKNLQISEMSLQYDYYMKQSNDMENIRKISHDIKNHLEALRGNVDYQQKQEYIDGIESKLDIYQSYYKTGNAFLNNLLHAKRLEALEKKIEFKVFADFTPFKRVKNEDLCVIVSNTIDNALRECQLMKADNPKIECLVQLKARKIKGFLSIICENSLRESQAEALRGNLVMETSKEDKKNHGFGVKNIKRVVREYGGEVSFNVVDDMFSVSILIPIEV
soluble on expression in E. coli: not soluble

MSPTTDRIAVVGGSISGLTAALMLRDAGVDVDVYERSPQPLSGFGTGIVVQPELVHYLLEQGVELDSISVPSSSMEYVDALTGERVGSVPADWRFTSYDSIYGGLYELFGPERYHTSKCLVGLSQDSETVQMRFSDGTKAEANWVIGADGGASVVRKRLLGIEPTYAGYVTWRGVLQPGEVADDVWNYFNDKFTYGLLDDGHLIAYPIPGRENAESPRLNFQWYWNVAEGPDLDELMTDVRGIRLPTSVHNNSLNPHNLRQFHSKGESLFKPFRDLVLNASSPFVTVVADATVDRMVHGRVLLIGDAAVTPRPHAAAGGAKASDDARTLAEVFTKNHDLRGSLQSWETRQLQQGHAYLNKVKKMASRLQHGGSFEPGNPAFAFGLPKVDEPSVVTNS
soluble on expression in E. coli: soluble

MIRLTNIKLPLDHQEHELEQAILTKLSIKAVQLIKFTVFKRGYDARKKNSIFLIYTLDVETNVDEALLATFIADTQVKETPDMAYKFVSQAPKNLKNRPVVIGMGPCGLFVGLVLAQMGFNPIVLERGQEVRQRTKDTFGFWRKKILNTESNVQFGEGGAGTFSDGKLYSQVKDPKHYSRKVLHEFVAAGAPEEILYVSKPHIGTFKLVTMVEKMRAKIFELGGEVRFNQRVDKIHFTDVEGNECTAQGIEGYQNKKVTGLTLSNGDHIETNYIALAIGHSARDTFSMLFDEDVYMKAKPFSVGFRIEHEQAVIDEARFGNNAGNEILGSADYKLVHHCSNGRSVYSFCMCPGGTVVAAASEEGRLVTNGMSQYSRLERNANSAIVVGIEPEDFITSEFASDRDYVLAGMEFQRNLEAKAFKLGGESYDAPVQLVGDFLAGRKSGEHGSVAPSYKPGVTYCDLSETLPDYAIAAIREALPAFDKKIKGFSMAEATLTAVETRTSSPIQITRDKETLQSLNAQGLYPAGEGAGYAGGILSAGIDGIKIAEAMALAITAEQEHLEHHHHHH
soluble on expression in E. coli: not soluble

MSGAYDESAMSDETTDSFWEVGNYKRTVKRIEDGHRLCNDMMSCIQERAKIEKAYSQQLTDWSKRWRQLVERGPQYGTLERAWLAVMTEAEKVSELHQEVKNNLLNEDLEKVKNWQKDAYHKQMMGGFKETKEADEGFRKAQKPWAKKLKELETAKKTYHMACKEEKIASAREANSKGEASVTTDQQKKLQEKVDKCKNDVQKAKEKYEKSLDELNKCTPQYMENMEVVFDQCQQFEEKRLNFLREVLLDTKRHLNLTESQSYATVYRELERTIVSASAQEDLKWFSSVHGPGMHMNWPQFEEFNPDLSHAISKKEKVKRNHDGVTLTQVTHGAEHGTPQTGDRGSVSSYEKNQQYSAEWSDDEQPPTAAQSASETNGGNPFEEDSKGVRVRALYDYEGQEQDELTFKAGDELTKLEDEDEQGWCKGRLDSGQLGLYPANYVEPV
soluble on expression in E. coli: not soluble

MAHHHHHHMWRPRRVQGLGSGEDICHLVSAVRRQGIRSLPSGLVVAAEIAYRCCSYSIESFQTDSTEAKKPSRVVGTAPTERQKRPSALAPSSSIPATEKAGIIVEWVPDALGYHLPLGLRERWEPSSKASPTEAGGLKASNDAETHGTEQQELEEVSSVGNPCASSRVGDGGGGSGHRSGHSDGPPFYGPLPNFATSPVFEWERCLWQWRPVKITPAAGTPHHTSLTVTAPISSSGEKRPLRDEMHCSDGGENDLAEGGLGESSQVYHLVPFLLCPTLEVCATQPLMHGSLRKELAAAQNACHHLRRSWPEDAKQDLLGTRRCPTYSEHETRLWSITIPTPVGELALSSPQDTDGDDANKQNTMLDLPTFAMIEGEPPMRVGGRIRACCGHGITSPAPPEAETWEAATAAARNERSTSAGNAAVPYVHVFCSEMSAACSDSLLSQTGIKASELPTPSSCDVSSPTLPLTRRNVVGGGLAELILAVDRYAALIARGDLALSAACWATLCDTKSWWVVQRLRVCPLEMERELVAATEAHKLWQQYAVSRNSTLVGKSSHGICFYDYPFLAKWPLGRQAATKATAPIRAHTRWRV
soluble on expression in E. coli: not soluble

GPGSMVNATPDMARYCCAVIHSKLRGEKTPEPPASITNEPSPIFVSLKTLDGDLRGCIGNFSAEPLHKQLRDYAVAAAFQDNRFPSVTLAELPMLSCSVCLLHSFEKAHRWDDWEIGVHGIRIRYKNYSATYLPSVMPEQRWDHIQAIRSLMRKAGCGEEVSDAILNELDVTRYQESKSTVAFKSANLGSLPC
soluble on expression in E. coli: soluble

MGSDKIHHHHHHMINENQHMTEREPSTRRIKSMQTASEVLRELQSQSEATLSDLCGNIDVAKSTLHTYLQTLVAEGFIDKSDGVYRLGLRFIPLGESVRNRIDLYQLGKEEVKRLAEETNEWVHLTVAYRSREVTLYEHNGGETVAVDYQRRTRESPQYLHCTATGKALLAYFDDDRVTETVATEGLVQQTEQTITDPDELREELEEIRARGYAVNDEEEIRGMRSVGAPIQDVDGTVCGAISVTAPKTRLSGDYLYNDLPELVMEAANIIEINLESAAASGE
soluble on expression in E. coli: not soluble

MNIDSDIFKIQSNNVLPSRGKILISEPFLRDATFGRSVVLLIDHTEEGSMGLIINKQLPIFVNDIIKEFKYIENIPLYKGGPIATDTLFYLHTLADIPGAIPISKGLYLNGDFDEIKKYILQGNKVDRYIRFFLGYSGWESEQLSTELKENTWLVSKEENAYLMNGDTKDMWKQALEKLGSKYETWSRFPQVPTFNLEHHHHHH
soluble on expression in E. coli: soluble

MSSDFPTDPYSTAQQKWLYQDHLVLPTLEKLLKYNLKDKKVLDIGCGNGLNSTTFLQWGARKVVGFDNSQEMIENCKNLHKSSEQSSFHHLNVTDFQLDEKFHVATAVFVLQYVHDKEELRKAIRLIWERKLRNGWFRLWMEDL
soluble on expression in E. coli: not soluble

SLVTLGEGFEKARLTRFLEKFGGNEGSQFLYLKDYGHFYYQEEGEDQVLFGFQMKFNKCFVLADPIGQREKWTAATLAFMDQADLLGYQLVFYRISEEYVMNLHDCGFEFMKVGEEGLIQFDEPSTVNQTAWTETVTEKIAAEAADFQFEFYPETISDALYQELERVSADWSRNQKERYFIGGRLDPEYLKCSSVGLVRQKQTVIGFITGKEMEKGKSISYDLLRIRSDAPAFTREYLFTHFIETYQQQGYQLIDIGMAPLANVGESKYSFLKERFVNIFYKYSYQIYAFQDTRKRKEQYVTSWQPRYFAYPKRTSVLFAFVQLSLLITKGRHQSVSLVEEAMTEI
soluble on expression in E. coli: not soluble

MVEFVNDPNFKDLVVDTTIDNRNDEEPMTIRNFTELMIQFYKLGWMRGSGGAMGCISGSELMISPSALQKERIREQDVFVYNMKDKTEVQRPPNKRITVSSCSVLFSLIMKETGSECVIHTHSKCANLITQLIKSNVFEISHQEYIKGIYDPFSGKALKYSDTLTIPIIDNMPSESQLLVCAINRSPMQPDCFINIALFQEPIRGVLENYPQAIAVLVRNHGLFVWGPTWESTKIMTECIDYLLELSIEMLKNNIPLVNEEAFEKEDNLSDKMRTLMFGDMAPV
soluble on expression in E. coli: not soluble

MAHHHHHHMFSEPVYLTIGDEYEKRAVKPSKSRGRNFIVPVKRSPHITDAVFQKSFISLAVGDEYLPPPPGGTFRQPAEKKPGEPQPLPFKPPSRPHKSCGSGSYYGTFNEKNPPKHEPETTIAEVKKSGANAPAGTVRKPNLYTNPGKKGTYGYTGLTLGRAGEVQYISDPVGCCSGQRTHSPRTQAPFSAAVKCGGCFDEGPHGFSTVYGMNKPLPMRKVPPQRVLPPMKPWRPAGALVREITRHPEYQEDPYDLKEKRLREERLKEQSHKPWFPCGTDAYRHIYTYPVPYNPPPVV
soluble on expression in E. coli: not soluble

MGSDKIHHHHHHMQYNFKVEAFEGPLDLLLHLIHRYEIDIYNIPVAEITEQYLSYVHTMKELQLDVASEYLVMAATLLQIKSKMLLPKHEEDVLDNGDDFIDDPRQELMERLIEYKKYKQVATELKEREQERAQLYTRPPIDFTSLQQEEETSLPLDVTLYDMLAAFQKLMRRKKAKKPVTTRITRQEIPIEQRMTDILKQLEIQGGRQSFYDLFVDDEREIMVVTFLAVLELMKNQQIVIEQEHNFDEIFVSSYTKSA
soluble on expression in E. coli: not soluble

MGHHHHHHSHMTSFEDADTEETVTCLQMTVYHPGQLQCGIFQSISFNREKLPSSEVVKFGRNSNICHYTFQDKQVSRVQFSLQLFKKFNSSVLSFEIKNMSKKTNLIVDSRELGYLNKMDLPYRCMVRFGEYQFLMEKEDGESLEFFETQFILSPRSLLQENNWPPHRPIPEYGTYSLCSSQSSSPTEMDENES
soluble on expression in E. coli: not soluble

MGSDKIHHHHHHVDTGNRPSILRMPAQEDFVRFKPGFGTRFLLTVDTEEEFDWSKPLDRTSHGLHHVPRLAKFQQFCEGVGVVPVYLVDFPVASDPRAADILRDAVHAGKAEIGVQLHPWVSPPHDEDVNVHNSFAGNLAPELERAKFRKLRDTIEQAFGVGPLIYRAGRYGVGPATASILSDCAIAIDTSVRSRFDYSSAGGPNFREYPLRPWWIDKRNGLMEMPLTTVFSGLLRQQGQTIYPALWRVPRLRGALARIGMLERIPLTPEGVTLDEAIKGIDMALDDGLEMLVFSFHSPSLCPGHTPYVRDESDLDLFYAWWRGVLTYMQQRNVKPTCVREIMEAAEI
soluble on expression in E. coli: not soluble

MLREFSFYDVPPAHVPPVSEPLEIACYSLSRDRELLLDDSKLSYYYPPPLFSDLNTGFPNRFHPPKSDPDPISIVKDVLMTKGIQMNSSFLTWRGLITKIMCAPLDPRNHWETYLVMDPTSGIIMMEERTRSETSYANQDRMCYWGYKFEAISTLPEIWDACSRDQIEQRDNQDVVPDEQYCSIVKINIGKSKLILAGEVDCIWDKKPCSAKESDVHSDDGTIEEDASNAENPNLHYVELKTSKKYPLENYGMRKKLLKYWAQSFLLGIGRIIIGFRDDNGILIEMKELFTHQIPKMLRPYFKPNDWTPNRLLVVLEHALEWIKQTVKQHPPSTEFTLSYTGGSKLVLRQIILEHHHHHH
soluble on expression in E. coli: soluble

MGSDKIHHHHHHMKRINRFAVQIDVEGRTELAHLHDPGRLLEIVYPGNEVLVRRTDGPKLKWRIEFGKINGRYVLIDSGLHSDIARRFLPEGAVPEVRVGRKRIDFRYGDDYIEVKGCTLMANGIAMFPDAPTKRGLEHLKTLETLASSGYRSHVMMIITRDDVRCFYPNFETDPKFAEAFLRLVPAYVKAHFLTFGFDGLYLRYAGSIGLCADVGHGTNGRL
soluble on expression in E. coli: not soluble

MHCNDGGPATLGLFSDSDLQQPARVEVLGPQSRVLRGFALPWVEALLPQLDAVLAAAPFRQMQTPGGFTMSVGLSSCGQLGWTTDRSGYRYSPIDPQSQRPWPALPKVFQELAEAAAEAAGFPGFAPDSCLINCYRPGAKMSLHQDKNERDYSAPIVSLSLGLPAIFLFGGRQRSDKSQRVALLHGDVVVWGGVDRLRYHGVLALKDGHHPLLGQQRINLTLRRAGLEHHHHHH
soluble on expression in E. coli: not soluble
